Assay results reported in US10737082B2, “Methods for lymphatic delivery of active agents” (Sorrento Therapeutics, Inc., priority 2015, dated 2020).

Assays:
[1] = In vivo near infrared imaging of lymphatic delivery of fluorescently tagged Etanercept after needle array administration to the skin; set-up: species or system rat; conditions: needle array device placed dorsally on rats, FIG. 8 and 9
Protocol: The ability to deliver the protein therapeutic Etanercept directly to the lymphatic system via administration to the skin was tested. Etanercept was fluorescently tagged for in vivo visualization using near infrared light as previous described, see Sevick-Muraca et al., J. Clin Invest., 124 (3), 905-914 (2014), which is incorporated by reference herein for its teachings thereof. Etanercept was administered to the skin of rats by placing a delivery device comprising an array of needles dorsally on the rats.

[2] = Biodistribution of Etanercept across multiple tissue types following delivery to the skin; type: in vivo, rat; conditions: delivery to the skin compared to traditional i.v., s.c., or i.d. methods, FIG. 10
Excerpt: The biodistribution of Etanercept across multiple tissues types following delivery was investigated.

[3] = Localization of Etanercept to inflamed tissues in hind limb arthritic rat model; type: in vivo; conditions: administered to the skin compared to subcutaneous delivery, FIG. 11A and B
[4] = tested on: hind limb arthritic rat model; experiment: Reduction of swelling of inflamed tissues measured by ankle diameter; type: in vivo; conditions: same 3 mg dosage, administration to the skin compared to subcutaneous injection, FIG. 12
Protocol: Furthermore, there was a 17% reduction in the swelling of these inflamed tissues after administration of the same 3 mg dosage of Etanercept as measured by ankle diameter (FIG. 12).

[5] = Rate of blood serum absorption of Etanercept after delivery to the skin; type: in vivo; conditions: administration to the skin compared with i.v., s.c., or i.d. methods, FIG. 13

Etanercept
lymphatic uptake and distribution after administration to the skin [1]: uptake by the lymphatic vasculature and subsequent distribution to primary and secondary lymph node tissues | levels within the axillary and inguinal lymph nodes [2]: much higher levels | levels localized to inflamed tissues [3]: higher levels | reduction in the swelling of inflamed tissues (ankle diameter) [4]: 17% | blood serum absorption rate [5]: approximately the same
